Measurements: PMC7343719, “Immobilization of the Highly Active UDP-Glucose Pyrophosphorylase From Thermocrispum agreste Provides a Highly Efficient Biocatalyst for the Production of UDP-Glucose” (Frontiers in Bioengineering and Biotechnology, 2020)

Target: UDP-glucose pyrophosphorylase from Thermocrispum agreste DSM 44070 (TaGalU) (Thermocrispum agreste DSM 44070)
Experiment: SEC; Superdex 200 10/300 GL 24 mL column, non-denaturing, 50 mM Hepes pH 7.0, 1 mM MgCl2; calibrated with protein standards

- stoichiometry N: 6
Substance: UDP-glucose pyrophosphorylase from Thermocrispum agreste DSM 44070 (TaGalU) (enzyme)
